Results published in patent US20220298231A1.

Experiments:
Conditions in all cases: remark: other sources report otherwise
[1] = target: human full-length alpha-synuclein (human), P37840; test: SPR, mAb captured, steady-state fit
[2] = target: alpha-synuclein fibrils (Homo sapiens (Human)), P37840; test: SPR, 450 nM aggregates, relative to chimeric
[3] = target: human full-length alpha-synuclein (human), P37840; test: SPR, 100 nM monomer, relative to chimeric
[4] = target: alpha-synuclein fibrils (Homo sapiens (Human)), P37840; test: SPR, mAb captured; alpha-synuclein fibrils
[5] = target: human full-length alpha-synuclein (human), P37840; test: SPR, mAb captured; alpha-synuclein monomers

B1: cACI-7067-1101C8-Ab2 (antibody, V domains shown)
VH: EVQLVESGGGLVQPKGSLKLSCAASGFSFNIYAMNWVRQAPGKGLEWVARIRSKSNNYATYYADSVKDRFTISRADSESMLYLQMNNLKTEDTAMYYCVRVGLRFYAMDYWGQGTSVTVSS
VL: DVLMTQTPLSLPVSLGDQASISCRSSQSIVHSNGNTYLEWYLQKPGQSPKLLIYKVSNRFSGVPDRFSGSGSGTDFTLKISRVEAEDLGVYYCFQGSQGPLTFGAGTKLELK
Question: For B1, which Kd [1] is on record?
Answer: 54.5 nM

Question: And the Relative koff [2]?
Answer: 1

Question: And the Relative koff [3]?
Answer: 1

B2: ACI-7079-2503C6-Ab1 (antibody, V domains shown)
VH: DVQLQESGPGLVKPSQSLSLTCSVTGYSITSGYYWNWIRLFPGNKLEWLGYINYDGSNNFNPSLKNRISITRDTSKNQFFLKLNSVTSEDTATYFCLRGDWDWGQGTLVTVSA
VL: not shown
Question: Which results are given for B2?
Answer: koff [4]: < 1e-05 s⁻¹; kon [4]: 9450 M⁻¹ s⁻¹

B3: ACI-7067-1113D10-Ab1 (antibody, V domains shown)
VH: EVQLVESGGGLVQPKGSLKLSCAASGFTFNTYALHWVRQAPGKGLEWVARIRSKSSNYATYYADSVKDRFTISRDDSQSMLYLQMNNLKTEDTGMYYCVRGGVSPFDYWGQGTTLTVSS
VL: QIVLTQSPAIMSASPGEKVTMTCSASSSVSYMHWYQQKSGTSPKRWIYDTSKLASGVPARFSGSGSGTSYSLTISSMEAEDSATYYCQQWSNNPPTFGGGTKLEIK
Question: How did the koff [5] turn out when B3 was run?
Answer: 0.0226 s⁻¹
